Assay results published in patent US20130039933.

Key:
[1] = biological target: A366 peptide (STING peptide substrate with alanine at 366)
[2] = biological target: S366 peptide (STING peptide substrate with serine 366)

Protein | Activity (cpm) [1] | Activity (cpm) [2] | Fold induction [2]
ULK2 (protein) MEVVGDFEYSKRDLVGHGAFAVVFRGRHRQKTDWEVAIKSINKKNLSKSQILLGKEIKILKELQHENIVALYDVQELPNSVFLVMEYCNGGDLADYLQAKGTLSEDTIRVFLHQIAAAMRILHSKGIIHRDLKPQNILLSYANRRKSSVSGIRIKIADFGFARYLHSNMMAATLCGSPMYMAPEVIMSQHYDAKADLWSIGTVIYQCLVGKPPFQANSPQDLRMFYEKNRSLMPSIPRETSPYLANLLLGLLQRNQKDRMDFEAFFSHPFLEQGPVKKSCPVPVPMYSGSVSGSSCGSSPSCRFASPPSLPDMQHIQEENLSSPPLGPPNYLQVSKDSASTSSKNSSCDTDDFVLVPHNISSDHSCDMPVGTAGRRASNEFLVCGGQCQPTVSPHSETAPIPVPTQIRNYQRIEQNLTSTASSGTNVHGSPRSAVVRRSNTSPMGFLRPGSCSPVPADTAQTVGRRLSTGSSRPYSPSPLVGTIPEQFSQCCCGHPQGHDSRSRNSSGSPVPQAQSPQSLLSGARLQSAPTLTDIYQNKQKLRKQHSDPVCPSHTGAGYSYSPQPSRPGSLGTSPTKHLGSSPRSSDWFFKTPLPTIIGSPTKTTAPFKIPKTQASSNLLALVTRHGPAEE | 7380 cpm | 156000 cpm | 21.1 fold
GRK7 (protein) MVDMGALDNLIANTAYLQARKPSDCDSKELQRRRRSLALPGLQGCAELRQKLSLNFHSLCEQQPIGRRLFRDFLATVPTFRKAATFLEDVQNWELAEEGPTKDSALQGLVATCASAPAPGNPQPFLSQAVATKCQAATTEEERVAAVTLAKAEAMAFLQEQPFKDFVTSAFYDKFLQWKLFEMQPVSDKYFTEFRVLGKGGFGEVCAVQVKNTGKMYACKKLDKKRLKKKGGEKMALLEKEILEKVSSPFIVSLAYAFESKTHLCLVMSLMNGGDLKFHIYNVGTRGLDMSRVIFYSAQIACGMLHLHELGIVYRDMKPENVLLDDLGNCRLSDLGLAVEMKGGKPITQRAGTNGYMAPEILMEKVSYSYPVDWFAMGCSIYEMVAGRTPFKDYKEKVSKEDLKQRTLQDEVKFQHDNFTEEAKDICRLFLAKKPEQRLGSREKSDDPRKHHFFKTINFPRLEAGLIEPPFVPDPSVVYAKDIAEIDDFSEVRGVEFDDKDKQFFKNFATGAVPIAWQEEIIETGLFEELNDPNRPTGCEEGNSSKSGVCLLL | 7260 cpm | 13100 cpm | 1.81 fold
